From patent US10184115B2, “Mutated cellobiose dehydrogenase with increased substrate specificity” (DIRECTSENS GMBH, priority 2012, dated 2019)

Tests used:
[1] = substrate: OC[C@H]1OC(O)[C@H](O)[C@@H](O)[C@@H]1O; test: Steady-state kinetics, DCIP assay: C. thermophilus CDH C310Y; format: biochemical, Corynascus thermophilus; conditions: other: apparent, pH 5.5, 30° C.
Protocol: (§1) Enzyme activity was assayed at 30° C. using either the DCIP (Karapetyan et al., 2005 Journal of Biotechnology 121: 34-48) or cytochrome c (Canevascini et al., 1991, European Journal of Biochemistry 198: 43-52) as electron acceptor. […] Stock solutions of carbohydrates used for kinetic measurements were prepared in the respective buffer and allowed to stand overnight for mutarotation, while stock solutions of electron acceptors were prepared in water and immediately used. The reaction stoichiometry is 1 for the two-electron acceptor DCIP (1 mole of DCIP reduced per mole of carbohydrate oxidized), but 2 for the one-electron acceptor cytochrome c. Kinetic constants were calculated by fitting the observed data to the Henri-Michaelis-Menten equation or to the adapted model for substrate inhibition using nonlinear least-squares regression and the program SigmaPlot (Systat Software, San Jose, Calif., USA).
(§2) Enzymes were purified to homogeneity in a two-step purification. The sample was loaded on a 20 mL PHE Sepharose FF column (HR26/20) equilibrated with 50 mM Na-acetate buffer pH 5.5 containing 20% ammonium sulfate. Proteins were eluted by increasing the concentration of the elution buffer (50 mM Na-acetate buffer pH 5.5) from 0 to 100% in 5 column volumes and fractions containing CDH activity were pooled. After diafiltration with a polyethersulfone flat-stack cross flow module with a cut-off of 10 kDa (Viva Flow 50, Sartorius, Göttingen, Germany) until conductivity of 5 mS cm^−1 in 20 mM Na-acetate pH 5.5 the samples were loaded on a 20 mL Q-Source column (HR26/20) equilibrated with a 20 mM Na-acetate buffer pH 5.5. CDH was eluted by increasing the concentration of the elution buffer (50 mM Na-acetate buffer pH 5.5 containing 0.5 M NaCl) from 0 to 100% in 50 column volumes. Fractions were tested for CDH activity and pooled according to the highest Reinheitszahl (RZ, calculated from the absorbance ratio 420 nm/280 nm). Purified enzymes were concentrated and diafiltered in 50 mM citrate buffer, pH 5.5, aliquoted and kept at 4° C. for further use.

[2] = substrate: OC[C@H]1O[C@H](O[C@H]2[C@H](O)[C@@H](O)C(O)O[C@@H]2CO)[C@H](O)[C@@H](O)[C@@H]1O; test: as above; format: biochemical, Corynascus thermophilus; conditions: other: apparent, pH 5.5, 30° C.
Protocol: as §1, §2

[3] = substrate: OC[C@H]1O[C@H](O[C@H]2[C@H](O)[C@@H](O)C(O)O[C@@H]2CO)[C@H](O)[C@@H](O)[C@@H]1O; test: purified protein, by the assay type; conditions: other: apparent, wt flavodehydrogenase domain, DCIP assay, pH 5.5, 30° C.
[4] = substrate: OC[C@H]1O[C@H](O[C@H]2[C@H](O)[C@@H](O)C(O)O[C@@H]2CO)[C@H](O)[C@@H](O)[C@@H]1O; test: Steady-state kinetics, DCIP assay: M. thermophilum CDH N313S; format: biochemical, Myriococcum thermophilum; conditions: other: apparent, pH 4.5, 30° C.
Protocol: as §1, §2

[5] = substrate: OC[C@H]1O[C@H](O[C@H]2[C@H](O)[C@@H](O)C(O)O[C@@H]2CO)[C@H](O)[C@@H](O)[C@@H]1O; test: Steady-state kinetics, DCIP assay: M. thermophilum CDH wt; format: biochemical, Myriococcum thermophilum; conditions: other: apparent, pH 4.5, 30° C.
Protocol: as §1, §2

[6] = substrate: OC[C@H]1O[C@H](O[C@H]2[C@H](O)[C@@H](O)C(O)O[C@@H]2CO)[C@H](O)[C@@H](O)[C@@H]1O; test: Steady-state kinetics, DCIP assay: M. thermophilum CDH N721D; format: biochemical, Myriococcum thermophilum; conditions: other: apparent, pH 4.5, 30° C.
Protocol: as §1, §2

B1: Corynascus thermophilus cellobiose dehydrogenase (CDH, SEQ ID NO: 7) variant C310Y (Thermothelomyces fergusii; C310Y) (protein)
chain: QMTEGTYTHEATGITFKTWTPSDGSTFTFGLALPGDALTNDATEYIGLLRCQITDPSSPGYCGISHGQSGQMTQALLLVAWASEDVVYTSFRYATGYTLPELYTGDAKLTQIASSVSGDSFEVLFRCENCFSWDQNGATGSVSTSNGALVLGYAASKSGLTGATCPDTAEFGFHNNGFGQWGAVLEGATSDSYEEWAQLATITPPTTCDGNGPGDKVCVPAPEDTYDYIVVGAGAGGITVADKLSEAGHKVLLIEKGPPSTGLWNGTMKPEWLEGTDLTRFDVPGLYNQIWVDSAGIACTDTDQMAGCVLGGGTAVNAGLWWKPHPADWDDNFPHGWKSSDLADATERVFSRIPGTWHPSQDGKLYRQEGFEVISQGLANAGWREVDANQEPSEKNRTYSHSVFMFSGGERGGPLATYLASAAQRSNFNLWVNTSVRRAIRTGPRVSGVELECLADGGFNGTVNLKEGGGVIFSAGAFGSAKLLLRSGIGPEDQLEIVASSKDGETFISKNDWIKLPVGHNLIDHLNTDLIITHPDVVFYDFYAAWDNPITEDKEAYLNSRSGILAQAAPNIGPLMWEEVTPSDGITRQFQWTCRVEGDSSKTNSTHAMTLSQYLGRGVVSRGRMGITSGLTTTVAEHPYLHNDGDLEAVIQGIQNVVDALSQVPDLEWVLPPPNTTVEEYVNSLIVSPANRRANHWMGTAKMGLDDGRSGGSAVVDLNTKVYGTDNLFVVDASIFPGMSTGNPSAMIVIVAEQAAQRILSLRY
**Q.** Which results are given for B1?
**A.** Km [1]: 37.5 mM; kcat [1]: 19.67 s⁻¹; kcat/Km [1]: 524.5 M⁻¹ s⁻¹; Km [2]: 80.0 mM; kcat [2]: 0.95 s⁻¹; kcat/Km [2]: 12 M⁻¹ s⁻¹

B2: Corynascus thermophilus CDH flavodehydrogenase domain, recombinant wild type (wtDH), amino acids 249-787 of SEQ ID NO: 7 (Thermothelomyces fergusii) (protein)
chain: YDYIVVGAGAGGITVADKLSEAGHKVLLIEKGPPSTGLWNGTMKPEWLEGTDLTRFDVPGLCNQIWVDSAGIACTDTDQMAGCVLGGGTAVNAGLWWKPHPADWDDNFPHGWKSSDLADATERVFSRIPGTWHPSQDGKLYRQEGFEVISQGLANAGWREVDANQEPSEKNRTYSHSVFMFSGGERGGPLATYLASAAQRSNFNLWVNTSVRRAIRTGPRVSGVELECLADGGFNGTVNLKEGGGVIFSAGAFGSAKLLLRSGIGPEDQLEIVASSKDGETFISKNDWIKLPVGHNLIDHLNTDLIITHPDVVFYDFYAAWDNPITEDKEAYLNSRSGILAQAAPNIGPLMWEEVTPSDGITRQFQWTCRVEGDSSKTNSTHAMTLSQYLGRGVVSRGRMGITSGLTTTVAEHPYLHNDGDLEAVIQGIQNVVDALSQVPDLEWVLPPPNTTVEEYVNSLIVSPANRRANHWMGTAKMGLDDGRSGGSAVVDLNTKVYGTDNLFVVDASIFPGMSTGNPSAMIVIVAEQAAQRILSLRY
**Q.** B2 was tested. Which Km [3] did it give?
**A.** 2.89 mM

B3: Myriococcum thermophilum cellobiose dehydrogenase (CDH, SEQ ID NO: 1) variant N313S (Thermothelomyces myriococcoides; N313S) (protein)
chain: QNNVPNTFTDPDSGITFNTWGLDEDSPQTQGGFTFGVALPSDALTTDASEFIGYLKCARNDESGWCGISLGGPMTNSLLITAWPHEDTVYTSLRFATGYAMPDVYEGDAEITQVSSSVNSTHFSLIFRCKNCLQWSHGGSSGGASTSGGVLVLGWVQAFDDPGNPTCPEQITLQQHDNGMGIWGAQLNTDAASPSYTDWAAQATKTVTGDCEGPTETSVVGVPVPTGVSFDYIVVGGGAGGIPAADKLSEAGKSVLLIEKGFASTANTGGTLGPEWLEGHDLTRFDVPGLCSQIWVDSKGIACEDTDQMAGCVLGGGTAVNAGLWFKPYSLDWDYLFPDGWKYNDVQPAINRALSRIPGTDAPSTDGKRYYQEGFEVLSKGLAAGGWTSVTANNAPDKKNRTFAHAPFMFAGGERNGPLGTYFQTAKKRNNFDVWLNTSVKRVIREGGHITGVEVEPFRDGGYEGIVPVTKVTGRVILSAGTFGSAKILLRSGIGPEDQLEVVAASEKDGPTMIGNSSWINLPVGYNLDDHLNTDTVISHPDVVFYDFYEAWDDPIESDKNSYLESRTGILAQAAPNIGPMFWEEIVGADGIVRQLQWTARVEGSLGAPNGHTMTMSQYLGRGATSRGRMTITPSLTTIVSDVPYLKDPNDKEAVIQGIINLQNALQNVANLTWLFPNSTITPREYVESMVVSPSNRRSNHWMGTNKLGTDDGRKGGSAVVDLDTRVYGTDNLFVIDASIFPGVPTTNPTSYIVVAAEHASSRILALPDLEPVPKYGQCGGREWTGSFVCADGSTCEYQNEWYSQCL
**Q.** Which results are given for B3?
**A.** Km [4]: 52 mM; kcat [4]: 1.3 s⁻¹; kcat/Km [4]: 25 M⁻¹ s⁻¹

B4: Myriococcum thermophilum cellobiose dehydrogenase (CDH), recombinant wild type, SEQ ID NO: 1 (Thermothelomyces myriococcoides) (protein)
chain: QNNVPNTFTDPDSGITFNTWGLDEDSPQTQGGFTFGVALPSDALTTDASEFIGYLKCARNDESGWCGISLGGPMTNSLLITAWPHEDTVYTSLRFATGYAMPDVYEGDAEITQVSSSVNSTHFSLIFRCKNCLQWSHGGSSGGASTSGGVLVLGWVQAFDDPGNPTCPEQITLQQHDNGMGIWGAQLNTDAASPSYTDWAAQATKTVTGDCEGPTETSVVGVPVPTGVSFDYIVVGGGAGGIPAADKLSEAGKSVLLIEKGFASTANTGGTLGPEWLEGHDLTRFDVPGLCNQIWVDSKGIACEDTDQMAGCVLGGGTAVNAGLWFKPYSLDWDYLFPDGWKYNDVQPAINRALSRIPGTDAPSTDGKRYYQEGFEVLSKGLAAGGWTSVTANNAPDKKNRTFAHAPFMFAGGERNGPLGTYFQTAKKRNNFDVWLNTSVKRVIREGGHITGVEVEPFRDGGYEGIVPVTKVTGRVILSAGTFGSAKILLRSGIGPEDQLEVVAASEKDGPTMIGNSSWINLPVGYNLDDHLNTDTVISHPDVVFYDFYEAWDDPIESDKNSYLESRTGILAQAAPNIGPMFWEEIVGADGIVRQLQWTARVEGSLGAPNGHTMTMSQYLGRGATSRGRMTITPSLTTIVSDVPYLKDPNDKEAVIQGIINLQNALQNVANLTWLFPNSTITPREYVESMVVSPSNRRSNHWMGTNKLGTDDGRKGGSAVVDLDTRVYGTDNLFVIDASIFPGVPTTNPTSYIVVAAEHASSRILALPDLEPVPKYGQCGGREWTGSFVCADGSTCEYQNEWYSQCL
**Q.** For B4, which Km [5] is on record?
**A.** 6.8 mM

**Q.** What about the kcat [5] of the same protein?
**A.** 0.32 s⁻¹

**Q.** What about the kcat/Km [5] of the same protein?
**A.** 47 M⁻¹ s⁻¹

B5: Myriococcum thermophilum cellobiose dehydrogenase (CDH, SEQ ID NO: 1) variant N721D (Thermothelomyces myriococcoides; N721D) (protein)
chain: QNNVPNTFTDPDSGITFNTWGLDEDSPQTQGGFTFGVALPSDALTTDASEFIGYLKCARNDESGWCGISLGGPMTNSLLITAWPHEDTVYTSLRFATGYAMPDVYEGDAEITQVSSSVNSTHFSLIFRCKNCLQWSHGGSSGGASTSGGVLVLGWVQAFDDPGNPTCPEQITLQQHDNGMGIWGAQLNTDAASPSYTDWAAQATKTVTGDCEGPTETSVVGVPVPTGVSFDYIVVGGGAGGIPAADKLSEAGKSVLLIEKGFASTANTGGTLGPEWLEGHDLTRFDVPGLCNQIWVDSKGIACEDTDQMAGCVLGGGTAVNAGLWFKPYSLDWDYLFPDGWKYNDVQPAINRALSRIPGTDAPSTDGKRYYQEGFEVLSKGLAAGGWTSVTANNAPDKKNRTFAHAPFMFAGGERNGPLGTYFQTAKKRNNFDVWLNTSVKRVIREGGHITGVEVEPFRDGGYEGIVPVTKVTGRVILSAGTFGSAKILLRSGIGPEDQLEVVAASEKDGPTMIGNSSWINLPVGYNLDDHLNTDTVISHPDVVFYDFYEAWDDPIESDKNSYLESRTGILAQAAPNIGPMFWEEIVGADGIVRQLQWTARVEGSLGAPNGHTMTMSQYLGRGATSRGRMTITPSLTTIVSDVPYLKDPNDKEAVIQGIINLQNALQNVANLTWLFPNSTITPREYVESMVVSPSNRRSDHWMGTNKLGTDDGRKGGSAVVDLDTRVYGTDNLFVIDASIFPGVPTTNPTSYIVVAAEHASSRILALPDLEPVPKYGQCGGREWTGSFVCADGSTCEYQNEWYSQCL
**Q.** For B5, which Km [6] is on record?
**A.** 6.1 mM

**Q.** What about the kcat [6] of the same protein?
**A.** 0.08 s⁻¹

**Q.** What about the kcat/Km [6] of the same protein?
**A.** 13.2 M⁻¹ s⁻¹
